We go through two variants from IntAct's records for PubMed 22056770.

B1: Flagellum site-determining protein YlxH (Bacillus subtilis), P40742 (parent)
chain: MQMNRYDQAATLRAKMEKRERVLPMVYSQKAKTLAVISGKGGVGKSNITLNMALALQDKGKKVLLIDLDIGMGNIDILIGNSSSATIIDVLTDRKPLLQSLSVGPKGLRYISGGTGLDVMFQLDQRKWTFFANELSHALSQFDYVLFDMGAGLSKDQLPFILSAEDILIITTPEPTAIMDAYSAVKHLVLTENKLSMKVAVNRCRDQKEGLDAFARLSRTIHMFLDVQVQFAGSVSDDVIVSKAVVEQVPFFIKSPQAKASRSVRILADALFEREETRHKEDKQTFIEKLSSFLMRRA
partner: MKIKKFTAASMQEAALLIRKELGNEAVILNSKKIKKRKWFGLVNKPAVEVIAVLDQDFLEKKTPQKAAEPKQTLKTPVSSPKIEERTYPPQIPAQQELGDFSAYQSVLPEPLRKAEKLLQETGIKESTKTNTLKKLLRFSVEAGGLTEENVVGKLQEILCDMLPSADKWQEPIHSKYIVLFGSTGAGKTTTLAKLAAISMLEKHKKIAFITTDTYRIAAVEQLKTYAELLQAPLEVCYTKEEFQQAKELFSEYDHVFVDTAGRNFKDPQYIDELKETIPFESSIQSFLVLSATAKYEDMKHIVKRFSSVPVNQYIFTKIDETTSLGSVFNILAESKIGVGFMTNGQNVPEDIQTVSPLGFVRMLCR
B2: Flagellar biosynthesis protein FlhF (Bacillus subtilis), Q01960 (parent)
chain: B1 partner
partner: B1 chain

The first experiment covers variants of B1. To be noted: with flhf_bacsu flhF.
In the case of Q8A, the “effect of a mutation on the interaction” value is “disrupting interaction”.

The variants in another experiment derive from B2. Conditions: with ylxh_bacsu ylxH.
R216A: the “effect of a mutation on the interaction” value was “disrupting interaction”.
